Source: publication PMC10794133, “Structures of the promoter-bound respiratory syncytial virus polymerase”

Columns and labels:
[1] = target: T1, RSV L (RNA-dependent RNA polymerase);RSV P (phosphoprotein) (human respiratory syncytial virus, …, UniProt P28887;P03421 1-2165;1-241, |); test: cryo-EM structure; pre-initiation at position 1; Cryo-EM grid conditions not in the material; protein in 25 mM HEPES pH 7.4, 300 mM NaCl, 6 mM MgSO4, 0.5 mM TCEP (gel filtration buffer); conditions: protein: recombinant;recombinant; tags: N-terminal 6xHis-TEV, TEV-treated;; copies: 1;4; single strand
[2] = target: T1, RSV L (RNA-dependent RNA …); test: cryo-EM structure; GTP and CpNpp supplemented (no product density); pre-initiation at position 3; Cryo-EM grid conditions not in the material; protein in 25 mM HEPES pH 7.4, 300 mM NaCl, 6 mM MgSO4, 0.5 mM TCEP (gel filtration buffer); conditions: protein: recombinant;recombinant; tags: N-terminal 6xHis-TEV, TEV-treated;; copies: 1;4; single strand

T1 sequence (P28887 whole entry, chain 1 of 2): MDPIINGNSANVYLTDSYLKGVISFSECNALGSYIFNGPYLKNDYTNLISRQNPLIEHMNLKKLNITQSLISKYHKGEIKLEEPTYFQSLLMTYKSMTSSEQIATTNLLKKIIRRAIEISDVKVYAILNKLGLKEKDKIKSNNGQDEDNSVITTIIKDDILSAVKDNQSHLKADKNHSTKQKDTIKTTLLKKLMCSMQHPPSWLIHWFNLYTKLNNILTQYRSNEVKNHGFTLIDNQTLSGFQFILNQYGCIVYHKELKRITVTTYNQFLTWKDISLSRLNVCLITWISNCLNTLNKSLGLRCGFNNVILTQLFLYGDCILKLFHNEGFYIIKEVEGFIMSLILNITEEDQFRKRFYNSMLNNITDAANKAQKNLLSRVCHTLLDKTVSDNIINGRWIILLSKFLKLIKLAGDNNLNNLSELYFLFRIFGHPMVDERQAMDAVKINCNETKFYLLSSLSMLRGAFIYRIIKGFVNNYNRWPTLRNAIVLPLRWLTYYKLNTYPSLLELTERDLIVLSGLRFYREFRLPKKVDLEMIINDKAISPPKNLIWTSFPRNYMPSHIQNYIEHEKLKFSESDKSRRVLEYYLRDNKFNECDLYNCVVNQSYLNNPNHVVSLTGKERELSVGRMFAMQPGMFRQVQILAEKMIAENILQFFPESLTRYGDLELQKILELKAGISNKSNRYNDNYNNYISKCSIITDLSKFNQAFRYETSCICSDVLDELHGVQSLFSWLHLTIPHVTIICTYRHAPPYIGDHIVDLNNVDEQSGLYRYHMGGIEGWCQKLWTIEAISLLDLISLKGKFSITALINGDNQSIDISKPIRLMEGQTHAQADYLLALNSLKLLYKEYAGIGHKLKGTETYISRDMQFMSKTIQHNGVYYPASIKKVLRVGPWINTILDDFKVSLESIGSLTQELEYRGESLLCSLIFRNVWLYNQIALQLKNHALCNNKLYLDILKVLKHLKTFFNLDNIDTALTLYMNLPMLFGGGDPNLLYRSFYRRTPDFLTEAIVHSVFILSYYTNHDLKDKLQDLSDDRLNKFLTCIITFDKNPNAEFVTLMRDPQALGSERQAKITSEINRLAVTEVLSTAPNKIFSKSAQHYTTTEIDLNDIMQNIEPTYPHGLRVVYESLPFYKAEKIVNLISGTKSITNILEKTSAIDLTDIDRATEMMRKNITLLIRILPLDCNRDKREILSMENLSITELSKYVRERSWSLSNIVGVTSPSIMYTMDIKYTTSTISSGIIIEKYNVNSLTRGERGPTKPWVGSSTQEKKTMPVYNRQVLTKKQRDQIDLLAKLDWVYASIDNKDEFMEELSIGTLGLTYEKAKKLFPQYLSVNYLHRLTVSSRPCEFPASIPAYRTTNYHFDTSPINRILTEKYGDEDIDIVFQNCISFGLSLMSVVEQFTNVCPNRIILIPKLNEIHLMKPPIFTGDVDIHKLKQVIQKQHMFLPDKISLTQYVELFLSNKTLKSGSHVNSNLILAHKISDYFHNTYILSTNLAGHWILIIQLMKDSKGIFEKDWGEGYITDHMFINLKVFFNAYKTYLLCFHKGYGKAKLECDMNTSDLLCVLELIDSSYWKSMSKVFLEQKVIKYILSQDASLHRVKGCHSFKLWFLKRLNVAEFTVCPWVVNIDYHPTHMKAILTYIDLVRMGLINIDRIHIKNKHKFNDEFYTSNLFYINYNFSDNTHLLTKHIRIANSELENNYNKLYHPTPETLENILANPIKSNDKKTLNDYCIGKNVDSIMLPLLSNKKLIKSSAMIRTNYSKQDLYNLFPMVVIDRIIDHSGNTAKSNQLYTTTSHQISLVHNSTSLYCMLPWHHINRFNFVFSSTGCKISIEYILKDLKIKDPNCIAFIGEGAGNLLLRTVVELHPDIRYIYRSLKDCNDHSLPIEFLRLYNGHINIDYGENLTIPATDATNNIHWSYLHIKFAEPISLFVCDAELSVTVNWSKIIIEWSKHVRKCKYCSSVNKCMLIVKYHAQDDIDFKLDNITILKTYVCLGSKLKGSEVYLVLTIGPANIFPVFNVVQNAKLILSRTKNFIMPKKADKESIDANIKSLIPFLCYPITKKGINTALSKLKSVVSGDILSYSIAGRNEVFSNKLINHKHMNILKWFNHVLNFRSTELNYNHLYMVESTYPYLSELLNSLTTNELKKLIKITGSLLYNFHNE
T1 sequence (P03421 whole entry, chain 2 of 2): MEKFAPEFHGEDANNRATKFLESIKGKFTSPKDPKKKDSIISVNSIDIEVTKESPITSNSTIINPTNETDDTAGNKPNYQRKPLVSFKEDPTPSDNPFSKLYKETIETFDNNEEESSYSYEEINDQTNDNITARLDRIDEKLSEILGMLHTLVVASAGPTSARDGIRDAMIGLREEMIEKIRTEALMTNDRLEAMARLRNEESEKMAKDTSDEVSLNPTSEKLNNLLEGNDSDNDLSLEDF

UUUUUCUCGU (ssRNA) [TrC10 (3' trailer complementary promoter of antigenome)]
binding result [1]: binds

UUUUUCGCGU (ssRNA) [Le10 (3' leader promoter of genome)]
binding result [2]: binds
